The results in this text go back to PMC9629490 (Acta Crystallographica. Section D, Structural Biology, 2022).

The target in the assay is T1, human SNRNP200^395-2136 (truncated SNRNP200 lacking the first 394 residues) (human, UniProt O75643 395-2136).
T1 construct: In the co-purification with PRPF8^RH-JM the complex was captured on Ni-NTA and the tag was then cut with TEV protease; also called SNRNP200 helicase; source: modified pFL vector; purified, obtained as described previously (Santos et al., 2012); also co-produced with PRPF8^RH-JM in Sf9 cells (baculovirus)
Briefly: SEC; analytical SEC, Superdex 200 Increase PC3.2/30, 20 mM Tris-HCl pH 7.5, 250 mM NaCl, 0.5 mM DTT; proteins mixed in equimolar ratios, 30 min on ice; fractions analyzed by SDS-PAGE. To be noted: both partners purified. In general terms: Size exclusion chromatography separates by hydrodynamic size, large species first.

T1 sequence (O75643 395-2136): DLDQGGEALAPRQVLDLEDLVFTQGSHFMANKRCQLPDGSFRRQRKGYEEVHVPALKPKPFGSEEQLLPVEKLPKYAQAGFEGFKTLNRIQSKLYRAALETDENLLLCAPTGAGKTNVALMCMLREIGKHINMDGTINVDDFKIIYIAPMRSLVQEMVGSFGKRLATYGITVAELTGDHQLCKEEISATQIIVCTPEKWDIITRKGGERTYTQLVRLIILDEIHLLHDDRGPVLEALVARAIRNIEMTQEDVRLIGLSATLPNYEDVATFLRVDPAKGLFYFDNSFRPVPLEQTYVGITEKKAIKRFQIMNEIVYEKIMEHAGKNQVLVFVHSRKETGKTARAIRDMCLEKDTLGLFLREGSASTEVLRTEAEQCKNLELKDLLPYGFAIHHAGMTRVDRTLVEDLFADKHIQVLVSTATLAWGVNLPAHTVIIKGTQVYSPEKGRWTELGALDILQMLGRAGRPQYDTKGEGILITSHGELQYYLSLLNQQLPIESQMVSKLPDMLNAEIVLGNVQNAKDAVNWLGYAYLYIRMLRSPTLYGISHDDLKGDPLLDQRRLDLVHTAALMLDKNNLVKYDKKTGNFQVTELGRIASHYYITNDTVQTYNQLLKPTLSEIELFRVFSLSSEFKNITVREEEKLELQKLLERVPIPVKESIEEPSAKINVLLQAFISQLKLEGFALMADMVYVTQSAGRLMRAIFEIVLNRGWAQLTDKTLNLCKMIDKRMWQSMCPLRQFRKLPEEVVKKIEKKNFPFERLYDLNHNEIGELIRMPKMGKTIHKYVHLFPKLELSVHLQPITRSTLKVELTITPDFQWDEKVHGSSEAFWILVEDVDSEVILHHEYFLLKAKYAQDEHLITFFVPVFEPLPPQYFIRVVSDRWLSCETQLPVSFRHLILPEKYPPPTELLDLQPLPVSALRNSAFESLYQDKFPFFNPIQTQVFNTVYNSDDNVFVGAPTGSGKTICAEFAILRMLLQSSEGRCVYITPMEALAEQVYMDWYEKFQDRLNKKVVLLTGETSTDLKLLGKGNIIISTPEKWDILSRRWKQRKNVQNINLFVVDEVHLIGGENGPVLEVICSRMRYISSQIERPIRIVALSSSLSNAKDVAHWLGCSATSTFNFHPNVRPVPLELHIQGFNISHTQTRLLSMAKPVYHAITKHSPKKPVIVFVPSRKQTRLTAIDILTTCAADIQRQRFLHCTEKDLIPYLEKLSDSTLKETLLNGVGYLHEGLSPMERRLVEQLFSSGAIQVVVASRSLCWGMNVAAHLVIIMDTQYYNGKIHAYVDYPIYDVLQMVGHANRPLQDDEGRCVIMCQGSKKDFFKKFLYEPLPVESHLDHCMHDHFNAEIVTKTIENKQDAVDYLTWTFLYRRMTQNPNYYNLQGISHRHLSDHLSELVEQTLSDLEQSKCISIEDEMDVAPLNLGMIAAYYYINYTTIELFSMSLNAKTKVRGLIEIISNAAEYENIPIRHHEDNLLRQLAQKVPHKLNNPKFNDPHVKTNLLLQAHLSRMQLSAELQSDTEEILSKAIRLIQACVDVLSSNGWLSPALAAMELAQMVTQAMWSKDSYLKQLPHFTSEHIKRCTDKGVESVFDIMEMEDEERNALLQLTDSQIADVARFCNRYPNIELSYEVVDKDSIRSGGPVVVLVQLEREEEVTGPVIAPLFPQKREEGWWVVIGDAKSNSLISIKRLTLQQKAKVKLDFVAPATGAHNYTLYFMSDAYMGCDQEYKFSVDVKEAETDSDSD

B1: human PRPF8 Jab1/MPN-like domain (PRPF8^JM, residues 2064-2335) (domain or fragment)
chain: not shown
notes: human PRPF8, Jab1/MPN-like domain, residues 2064-2335; The GST tag is TEV-cleavable; also called PRPF8 JM domain; source: pET-M11 plasmid, codon-optimized synthetic gene; purified, obtained as described previously (Mozaffari-Jovin et al., 2013)
For the molecule B1, the binding result is recorded as “binds”.

B2: human PRPF8 C-terminal fragment encompassing the RH and JM domains (PRPF8^RH-JM, residues 1760-2335) (domain or fragment)
chain: not shown
notes: human PRPF8, C-terminal fragment with the RH and JM domains, residues 1760-2335; no tag is stated for this chain (pIDK donor vector); also called PRPF8^RM-JM; prpf8^1760–2335
In the case of B2, the binding result is “binds”.
